{"source": "paper PMC9747239", "about": "“State-selective modulation of heterotrimeric Gαs signaling with macrocyclic peptides” (Cell, 2022)", "binders": {"B1": {"name": "Biotinylated Avi-Gαs (WT), residues 7-380 of the short isoform of human Gαs (natural protein)", "chain": "SKTEDQRNEEKAQREANKKIEKQLQKDKQVYRATHRLLLLGAGESGKSTIVKQMRILHVNGFNGDSEKATKVQDIKNNLKEAIETIVAAMSNLVPPVELANPENQFRVDYILSVMNVPDFDFPPEFYEHAKALWEDEGVRACYERSNEYQLIDCAQYFLDKIDVIKQADYVPSDQDLLRCRVLTSGIFETKFQVDKVNFHMFDVGGQRDERRKWIQCFNDVTAIIFVVASSSYNMVIREDNQTNRLQEALNLFKSIWNNRWLRTISVILFLNKQDLLAEKVLAGKSKIEDYFPEFARYTTPEDATPEPGEDPRVTRAKYFIRDEFLRISTASGDGRHYCYPHFTCAVDTENIRRVFNDCRDIIQRMHLRQYELL", "modifications": "biotin on the Avi tag (BirA)", "notes": "human Gαs (GNAS), short isoform, residues 7-380; Loaded with GNP (GppNHp) or GDP; the nucleotide state is told by the assay; also called Gαs/GNP; Gαs/GDP; source: E. coli BL21(DE3), purified (TALON, Drice cleavage, BirA biotinylation, Source-15Q, gel filtration); not shown: Avi tag, N-terminal, kept; His6, N-terminal, cleaved"}}, "molecular_target": "T1, His-Gβ1/Gγ2(C68S) (human, UniProt P62873 1-340; P59768 1-71, C68S)", "T1 construct": "human Gβ1 (GNB1); human Gγ2 (GNG2) with C68S; also called Gβγ; Gβγ(C68S); source: Sf9, baculovirus (pFastBac Dual), co-expressed, purified (TALON, gel filtration); not shown: His6, N-terminal, kept", "T1 sequence (P62873 whole entry, chain 1 of 2)": "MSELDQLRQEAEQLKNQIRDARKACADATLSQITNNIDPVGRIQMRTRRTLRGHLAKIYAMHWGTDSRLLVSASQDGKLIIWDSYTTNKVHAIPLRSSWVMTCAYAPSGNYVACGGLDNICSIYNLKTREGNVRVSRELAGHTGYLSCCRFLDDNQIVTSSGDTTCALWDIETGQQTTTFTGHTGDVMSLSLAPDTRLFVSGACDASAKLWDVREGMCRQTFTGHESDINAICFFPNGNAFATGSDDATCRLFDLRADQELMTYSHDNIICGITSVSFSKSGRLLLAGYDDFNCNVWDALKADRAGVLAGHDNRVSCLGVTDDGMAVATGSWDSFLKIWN", "T1 sequence (P59768 whole entry C68S, chain 2 of 2)": "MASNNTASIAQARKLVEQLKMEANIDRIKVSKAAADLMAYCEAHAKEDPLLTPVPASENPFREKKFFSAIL", "assay": "AlphaScreen or HTRF; TR-FRET Gα/Gβγ interaction assay: 4 nM biotinylated avi-Gα with streptavidin XL665, 2 nM His-Gβ1/γ2(C68S) with anti-6His-Tb cryptate, cyclic peptide 0-10,000 nM; 1X PBS 7.4, 2 mM DTT, 0.1% BSA, 2 mM MgCl2, 0.05% Tween, 0.5 mM GDP, 2 h at room temperature", "details": "both partners purified"}
{"binder": "B1", "values": [{"measurement": "binding result", "value": "binds"}]}
